Data on 3 substances can be found in patent US20090269346A1.

Assay [1] has as its target GFRα-1. The assay is described as follows: solid-phase assay (ELISA): RAP-GDNF concentration varied on GFRalpha-1, OD 450 nm; per paragraph 304 GFRalpha-1 coated on the plate and bound protein detected with anti-GDNF mAb. For orientation: ELISA stands for enzyme-linked immunosorbent assay.
For assay [2], the target named is GFRα-1. Description: solid-phase binding assay (FIG. 11).
The target in another assay is LRP2 CR3435 (human) (UniProt P98164). The assay is described as follows: solid-phase assay: CR protein coated on the plate, RAP-IDU titrated, bound iduronidase activity read as rfu.
A further assay deals with LRP1 CR3-5 (human). Description: solid-phase assay, coated CR protein, RAP-IDU detected by iduronidase activity.
Assay [3] concerns the target LRP2 CR89 Y1042W V1047D (human) (UniProt P98164). Description: solid-phase assay, coated CR protein, anti-RAP, OD450.

Chain of LRP1 CR3-5 (human) (Q07954 852-973): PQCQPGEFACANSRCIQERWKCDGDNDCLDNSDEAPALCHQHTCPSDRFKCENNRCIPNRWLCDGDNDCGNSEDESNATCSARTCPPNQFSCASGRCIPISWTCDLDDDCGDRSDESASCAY
Chain of LRP2 CR89 Y1042W V1047D (human) (P98164 1022-1105 Y1043W/V1048D limits assumed): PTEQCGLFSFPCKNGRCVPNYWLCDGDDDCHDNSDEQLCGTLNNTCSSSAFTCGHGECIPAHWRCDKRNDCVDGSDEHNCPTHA

One may read the EC50 (read off the curve) as the midpoint of the concentration-response curve. By Kd is commonly meant the concentration at which binding is half-saturated. “RAP-GDNF fusion protein (from UniProt P39905 78-211)” showed an EC50 (read off the curve) with GFRα-1 [1] of 2 ng/mL. Besides, in the assay with GFRα-1 [2], the Kd is 5 ng/mL.
“RAP-IDU (fusion of RAP and human α-L-iduronidase) (from UniProt P35475 28-653)”: the results for the Kd in the assay with LRP2 CR3435 (human) and in the assay with LRP1 CR3-5 (human) were 722 nM and 3 nM, respectively.
In turn, “wild-type RAP d3 (from UniProt P30533 235-353) (ligand)” returned a % max bind in assay [3] of 11%.
